Data on 16 molecules can be found in article PMC10786891, “Massively parallel profiling of RNA-targeting CRISPR-Cas13d”.

Changes are numbered by the printed parent chain. Names and notes keep the numbering of the source.

T1: EsCas13d, nuclease-dead (Eubacterium siraeum, UniProt B0MS50, R295A;H300A;R849A;H854A)
T1 sequence: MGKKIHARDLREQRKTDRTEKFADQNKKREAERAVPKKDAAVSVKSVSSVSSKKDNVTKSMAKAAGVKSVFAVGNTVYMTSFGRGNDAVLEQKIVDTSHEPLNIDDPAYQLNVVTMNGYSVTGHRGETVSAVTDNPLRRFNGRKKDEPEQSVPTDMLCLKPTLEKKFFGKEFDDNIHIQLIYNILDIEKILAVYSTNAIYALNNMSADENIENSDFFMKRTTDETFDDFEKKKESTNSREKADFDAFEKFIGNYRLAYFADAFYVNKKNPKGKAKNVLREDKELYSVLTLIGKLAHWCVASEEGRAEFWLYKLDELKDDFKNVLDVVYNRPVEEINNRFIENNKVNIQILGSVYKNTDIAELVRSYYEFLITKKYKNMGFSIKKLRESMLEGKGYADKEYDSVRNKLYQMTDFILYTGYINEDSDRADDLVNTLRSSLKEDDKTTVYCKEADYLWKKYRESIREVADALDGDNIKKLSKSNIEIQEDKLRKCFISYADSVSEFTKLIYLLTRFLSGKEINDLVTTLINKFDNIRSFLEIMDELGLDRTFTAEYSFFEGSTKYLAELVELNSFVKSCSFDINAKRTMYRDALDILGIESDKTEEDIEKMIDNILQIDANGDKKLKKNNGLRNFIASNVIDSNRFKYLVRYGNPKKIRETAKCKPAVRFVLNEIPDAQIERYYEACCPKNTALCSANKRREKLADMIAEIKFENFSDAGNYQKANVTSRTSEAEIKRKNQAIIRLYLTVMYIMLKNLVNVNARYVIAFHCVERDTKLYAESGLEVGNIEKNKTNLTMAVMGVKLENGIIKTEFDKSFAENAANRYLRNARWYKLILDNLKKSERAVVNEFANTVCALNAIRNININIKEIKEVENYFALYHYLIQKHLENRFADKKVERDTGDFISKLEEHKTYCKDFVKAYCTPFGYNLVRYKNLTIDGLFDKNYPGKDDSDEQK

B1: target 1 U8G,G13U (mixed)
RNA 1: CACCCGUGCAAAAAUGCAGGGGUCUAAAACUGAGCGGAUAACCUCUCUAUGG
RNA 2: GGGAAUGGAUCCACAUCUACGAAUUCGUACCAUAGAGAUGUUAGCCGCUCACCGAGAUCGGAAGAGCACACGU
B2: target 1 U8G,C22G (mixed)
RNA 1: B1 RNA 1
RNA 2: B1 RNA 2 with C30G, U39G
B3: target 1 insA 3' of 21,insC 3' of 12 (mixed)
RNA 1: B1 RNA 1
RNA 2: GGGAAUGGAUCCACAUCUACGAAUUCGUACCAAUAGAGAGGCUUAUCCGCUCACCGAGAUCGGAAGAGCACACGU
B4: target 1 A18U,A20G (mixed)
RNA 1: B1 RNA 1
RNA 2: B1 RNA 2 with A32G, A34U, U39G, G44U
B5: target 1 G17A,C21U (mixed)
RNA 1: B1 RNA 1
RNA 2: B1 RNA 2 with C31U, G35A, U39G, G44U
B6: target 1 insG 3' of 9,insA 3' of 7 (mixed)
RNA 1: B1 RNA 1
RNA 2: GGGAAUGGAUCCACAUCUACGAAUUCGUACCAUAGAGAGGUUAGUCACGCUCACCGAGAUCGGAAGAGCACACGU
B7: target 1 U3A,U19C (mixed)
RNA 1: B1 RNA 1
RNA 2: B1 RNA 2 with U33C, U39G, G44U, U49A
B8: target 1 insU 3' of 17,insA 3' of 2 (mixed)
RNA 1: B1 RNA 1
RNA 2: GGGAAUGGAUCCACAUCUACGAAUUCGUACCAUAGUAGAGGUUAUCCGCUCAACCGAGAUCGGAAGAGCACACGU
B9: target 1 insA 3' of 21,insU 3' of 5 (mixed)
RNA 1: B1 RNA 1
RNA 2: B3 RNA 2 with C42U, U44A, A45U, U46C, C48G, G49U
B10: target 1 C7U,A16U (mixed)
RNA 1: B1 RNA 1
RNA 2: B1 RNA 2 with A36U, U39G, G44U, C45U
B11: target 1 C7A,G12U (mixed)
RNA 1: B1 RNA 1
RNA 2: B1 RNA 2 with U39G, G40U, G44U, C45A
B12: target 1 G13U,A16G (mixed)
RNA 1: B1 RNA 1
RNA 2: B1 RNA 2 with A36G, G44U
B13: target 1 del4,del9 (mixed)
RNA 1: B1 RNA 1
RNA 2: GGGAAUGGAUCCACAUCUACGAAUUCGUACCAUAGAGAGGUUUCCGUCACCGAGAUCGGAAGAGCACACGU
B14: target 1 insA 3' of 19,insG 3' of 10 (mixed)
RNA 1: B1 RNA 1
RNA 2: B3 RNA 2 with A33U, U34A, C42U, U44G
B15: target 1 insU 3' of 17,insC 3' of 1 (mixed)
RNA 1: B1 RNA 1
RNA 2: B8 RNA 2 with A53C
B16: target 1 insU 3' of 22,insU 3' of 6 (mixed)
RNA 1: B1 RNA 1
RNA 2: B3 RNA 2 with C31U, A32C, C42U, U44A, A45U, U46C, C48U

The target in the series is T1, EsCas13d, nuclease-dead. As to the kind of experiment: crRNA (strand 1, pre-loaded); Mg2+; 40 mM Tris-HCl pH 7.5, 150 mM NaCl, 6 mM MgCl2, 1 mM DTT, 0.1% Tween-20, 0.2 mg/ml BSA; 25 C; 10 min per concentration, then washed. As to conditions: tags: His6-TwinStrep-SUMO cleaved; N-terminal SNAP kept (SNAP-Surface 488); label: 3' end held by stalled T7 RNA polymerase.
As for B1, binding was characterised by a dissociation constant (Kd) of 38 ± 8 nM.
The molecule B2 yielded a Kd of 43 ± 11 nM.
As to B3, the Kd is ~44 nM.
As for B4, binding was characterised by a dissociation constant (Kd) of 93 ± 30 nM.
On to B5, for which the Kd turned out to be 8.1 ± 0.5 nM.
For the molecule B6, binding was put at a Kd of 12.2 ± 0.6 nM.
As for B7, the figure is 24.2 ± 2.6 nM.
As for B8, the figure is 17.6 ± 1.8 nM; as for B9, 30 ± 5 nM; as for B10, 46 ± 7 nM.
In turn, B11 showed a Kd of 15.3 ± 1.5 nM.
As for B12, the figure is 100 ± 50 nM; as for B13, 78 ± 15 nM; as for B14, 68 ± 28 nM.
Molecule B15 returned a Kd of 18 ± 2.4 nM.
B16 registered an equilibrium dissociation constant (Kd) of 38 ± 7 nM.

As usually defined, the Kd is a measure of binding affinity in units of concentration. Higher therefore signals weaker binding.
